Data set [1] addresses T1, SDN1 TEV (Arabidopsis thaliana, UniProt A3KPE8 2-300+=ENLYFQS+301-409, internal_change).
T1 sequence: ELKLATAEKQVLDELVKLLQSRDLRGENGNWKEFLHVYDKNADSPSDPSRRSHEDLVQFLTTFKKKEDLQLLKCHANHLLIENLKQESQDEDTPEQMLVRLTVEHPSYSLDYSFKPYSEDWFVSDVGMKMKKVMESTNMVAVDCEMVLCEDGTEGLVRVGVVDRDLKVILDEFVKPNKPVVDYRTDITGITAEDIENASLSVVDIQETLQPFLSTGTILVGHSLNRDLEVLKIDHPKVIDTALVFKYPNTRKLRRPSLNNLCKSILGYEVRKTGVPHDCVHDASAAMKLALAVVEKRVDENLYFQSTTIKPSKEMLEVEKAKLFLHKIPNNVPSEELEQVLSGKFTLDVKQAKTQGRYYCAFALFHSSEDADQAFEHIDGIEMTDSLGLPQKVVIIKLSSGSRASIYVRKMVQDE
Put plainly: UV crosslinking + TEV mapping; RNA on RRM fragment; EMSA: 50 mM Tris pH 8.0, 100 mM NaCl, 1 mM DTT, no Mg2+, 2 nM RNA, on ice 30 min, 8% native PAGE in 0.5x TBE; NMR: 50 mM Na2HPO4 pH 7.4, 100 mM NaCl, 10% D2O. The settings on record: protein: recombinant; tags: His-SUMO tag removed; label: 5' 32P on target strand; unpaired miR166 3' end (T6-type); target 3' overhang 4 nt. (A gel shift assay detects complexes by their altered migration in electrophoresis.)

The target of data set [2] is T1, SDN1 TEV. Put plainly: UV crosslinking + TEV mapping; RNA on DEDDh (ΔC) fragment; EMSA: 50 mM Tris pH 8.0, 100 mM NaCl, 1 mM DTT, no Mg2+, 2 nM RNA, on ice 30 min, 8% native PAGE in 0.5x TBE; NMR: 50 mM Na2HPO4 pH 7.4, 100 mM NaCl, 10% D2O. The note with it: protein: recombinant; tags: His-SUMO tag removed; label: 5' 32P on target strand; unpaired miR166 3' end (T6-type); target 3' overhang 4 nt.

Data set [3] deals with T2, SDN1 S22A (Arabidopsis thaliana, UniProt A3KPE8 2-409, S22A).
T2 sequence: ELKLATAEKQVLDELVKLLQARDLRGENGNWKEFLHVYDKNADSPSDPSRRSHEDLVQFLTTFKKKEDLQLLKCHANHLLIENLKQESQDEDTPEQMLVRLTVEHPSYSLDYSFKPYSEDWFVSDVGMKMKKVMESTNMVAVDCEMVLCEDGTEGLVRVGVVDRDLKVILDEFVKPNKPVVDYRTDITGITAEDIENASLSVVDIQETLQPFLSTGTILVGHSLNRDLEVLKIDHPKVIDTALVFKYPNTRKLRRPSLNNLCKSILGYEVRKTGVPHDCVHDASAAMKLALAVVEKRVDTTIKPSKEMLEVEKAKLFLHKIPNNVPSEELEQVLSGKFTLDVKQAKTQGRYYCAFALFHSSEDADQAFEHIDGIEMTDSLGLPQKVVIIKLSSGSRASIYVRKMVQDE
Put plainly: EMSA; not impaired; EMSA: 50 mM Tris pH 8.0, 100 mM NaCl, 1 mM DTT, no Mg2+, 2 nM RNA, on ice 30 min, 8% native PAGE in 0.5x TBE; NMR: 50 mM Na2HPO4 pH 7.4, 100 mM NaCl, 10% D2O. The settings on record: protein: recombinant; tags: His-SUMO tag removed; label: 5' 32P; single strand.

For data set [4], the target named is T3, SDN1 Q21A (Arabidopsis thaliana, UniProt A3KPE8 2-409, Q21A).
T3 sequence: T2 sequence with Q20A, A21S
The data set is described as above. The settings on record: protein: recombinant; tags: His-SUMO tag removed; label: 5' 32P; single strand.

Data set [5] has as its target T4, SDN1 F356A (Arabidopsis thaliana, UniProt A3KPE8 2-409, F356A).
T4 sequence: T2 sequence with A21S, F355A
Put plainly: EMSA; no Mg2+; not impaired; EMSA: 50 mM Tris pH 8.0, 100 mM NaCl, 1 mM DTT, no Mg2+, 2 nM RNA, on ice 30 min, 8% native PAGE in 0.5x TBE; NMR: 50 mM Na2HPO4 pH 7.4, 100 mM NaCl, 10% D2O. The settings on record: protein: recombinant; tags: His-SUMO tag removed; label: 5' 32P; single strand.

Substitutions are numbered along the chain they refer to.

B1: miR166:5'-IUU (dsRNA)
RNA 1: UCGGACCAGGCUUCAUCCCCC
RNA 2: GAUUCCCUUGAAGCUUGGUCCGGAUUA
modifications: 5-iodoU at 3,4 of strand 2
Regarding B1, the binding result in data set [1] was “binds”.

B2: miR166:3'-IUU (dsRNA)
RNA 1: UCGGACCAGGCUUCAUCCCCC
RNA 2: GAUUCCCUUGAAGCUUGGUCCGGAUUA
modifications: 5-iodoU at 25,26 of strand 2
With B2, the binding result in data set [2] is listed as “binds”. On to UCGGACCAGGCUUCAUCCCCC (ssRNA) [miR166], for which the binding result in data set [3], in data set [4] and in data set [5] was “binds” each time.
